A protein production outcome set (Wang et al. 2014)

Assay: label from the status in PepcDB records
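Note: failed if final PepcDB status was selected cloned or expressed and not failed if soluble or beyond.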

Row | Sequence | protein production
1 | MSSATASIKLSNGVEMPVIGLGTWQSSPAEVITAVKTAVKAGYRLIDTASVYQNEEAIGTAIKELLEEGVVKREELFITTKAWTHELAPGKLEGGLRESLKKLQLEYVDLYLAHMPAAFNDDMSEHIASPVEDVWRQFDAVYKAGLAKAVGVSNWNNDQISRALALGLTPVHNSQVELHLYFPQHDHVDFCKKHNISVTSYATLGSPGRVNFTLPTGQKLDWAPAPSDLQDQNVLALAEKTHKTPAQVLLRYALDRGCAILPKSIQENRIKENFEVFDFSLTEEDIAKLEESKNSQRLFLQDFMTGHPEDAFAAERK | not failed
2 | MNSASTTVPTDLTNERLPSGRLLALGLQHVLVMYAGTVAVPLIVGGALKLPKDQLAFLINADLFAAGLATLIQAFGFWKFGIRMPVMMGVTFASVAPMIAIGNDPNVGLLGIYGAVIASGIFGILIAPMMGRMLGLFPPVVTGTVITLIGVSLMRVGINWAGGGQPTTRAVIDGVAKEVPNLAYGDLSNLAIAGLVLAVILLLSKYGRGLVANCAVLLGIIIGTLVAMALGKVSFEGLNEASYVAVITPLHFGIPKFELTAILSMCIVMLITLVESTGMFLALSDITGRKLSRDDLTAGLRADGLGTVIGGIFNTFPYTSFSQNVGLVTVTGVRSRYVAAAGGLILIAFGLFPKMAHVVASVPQFVLGGAGIVMFGMVAATGIRILGSCDFNRNRHNLFIVAISIGFGMIPTLSPTLFQYLPKWTDPFTHSGIVLGTIVAVALNLFFNGIQSAEEAMRNAAANSHGTE | failed
3 | MHHQQRMAALGTDKELSDLLDFSAMFSPPVSSGKNGPTSLASGHFTGSNVEDRSSSGSWGNGGHPSPSRNYGDGTPYDHMTSRDLGSHDNLSPPFVNSRIQSKTERGSYSSYGRESNLQGCHQQSLLGGDMDMGNPGTLSPTKPGSQYYQYSSNNPRRRPLHSSAMEVQTKKVRKVPPGLPSSVYAPSASTADYNRDSPGYPSSKPATSTFPSSFFMQDGHHSSDPWSSSSGMNQPGYAGMLGNSSHIPQSSSYCSLHPHERLSYPSHSSADINSSLPPMSTFHRSGTNHYSTSSCTPPANGTDSIMANRGSGAAGSSQTGDALGKALASIYSPDHTNNSFSSNPSTPVGSPPSLSAGTAVWSRNGGQASSSPNYEGPLHSLQSRIEDRLERLDDAIHVLRNHAVGPSTAMPGGHGDMHGIIGPSHNGAMGGLGSGYGTGLLSANRHSLMVGTHREDGVALRGSHSLLPNQVPVPQLPVQSATSPDLNPPQDPYRGMPPGLQGQSVSSGSSEIKSDDEGDENLQDTKSSEDKKLDDDKKDIKSITSNNDDEDLTPEQKAEREKERRMANNARERLRVRDINEAFKELGRMVQLHLKSDKPQTKLLILHQAVAVILSLEQQVRERNLNPKAACLKRREEEKVSSEPPPLSLAGPHPGMGDASNHMGQM | failed
4 | MEKYQNLLVVIDPNQDDQPALRRAVYIVQRNGGRIKAFLPVYDLSYDMTTLLSPDERNAMRKGVINQKTAWIKQQARYYLEAGIQIDIKVIWHNRPYEAIIEEVITDKHDLLIKMAHQHDKLGSLIFTPLDWQLLRKCPAPVWMVKDKEWPEYGTIVVAANLSNEESYHDALNLKLIELTNDLSHRIQKDPDVHLLSAYPVAPINIAIELPDFDPNLYNNALRGQHLIAMKELRQKFSIPEEKTHVKEGLPEQVIPQVCEELNAGIVVLGILGRTGLSAAFLGNTAEQLIDHIKCDLLAIKPDGFTCPITVDSDNE | not failed
5 | MAKPVVETPLMRQYFQIKQKHPDAILLFRVGDFYETFSEDAIVASEILGITLTRRANGAAQFVELAGFPHHALDTYLPKLVRAGKRVAICDQLEDPKKTKTLVKRGITELVTPGVSTNDNVLSHKENNFLAAVSCGKEVFGISLLDISTGEFMAGQGNADYVEKLLTNYRPKEILVERSERSRFNDLFHWSGFIFDMEDWAFSSENNRLRVLKHFDLKSLKGFGLEELSMAVTAAGAVLNYLDLTQHHQLQHITSLSRLDENRYVRLDKFTVRSLELLSPMNEGGKSLLDIIDHTITPMGARRIRQWIVFPLKDPARIQARQRVVEFFFRHPEERAIIAEHLTEIGDLERLVTKGAMGRISPREMVQLRVALQALEPIKEVCTHADEENLRTLGGKLELCKELRDKILREVMPDAPAALGRGPVIAHGVDATLDELRALAYSGKDYLIKLQQQEIERTGIPSLKVAYNNVFGYYIEVRNTHKDKVPAEWIRKQTLVSAERYITEELKEYEAKILGAEEKIAALEGQLYALLVAELQRYVAPLQQDSQAVASLDCLLSFAESARRYRFICPVVDESFTIDIKAGRHPVIEQQLPADEPYIANDIYLDTDRQQVIIVTGPNMSGKSALLRQTALISLMAQIGSFVPAESARIGMVDSIFTRVGASDNISMGESTFMVEMQEASNILNNLTPRSLVLFDELGRGTSTYDGISIAWSIVEYIHDNPKAHPRTLFATHYHELNELEGQLDRVHNFNVSAREVDGKMLFLRKLEPGGSAHSFGIQVARLGGMPHHIVQRATDILHRLEQEREKIEEEEPKTKDTKRGPSEKVKNASPTLPRDEKGRSIDGYQLSFFQLDDPVLSQIREEILDLNIDNLTPLEALNKLNDIKRILRGY | failed
6 | DGIVELKTVPFDQLVVYEQKLFPAERERFLRLWIKQPNSAAYAVVRDGQIVGYGVIRQSHTGLRIGPLNADNEQIAEQLLLALLAFRSDALVFLDVPDANLEAIKLVQRYGMKPVSEVARMYNKEIPNLLINRVFAVTSLEVG | failed
7 | MSTSQTKNVSIDTIKEFMYQVLLKVGSDEENARMVRDTLIAADLRGMDTHGIQRFKTVYIDRIKKGMINPTAKPSIIRETSTTCVLDGNNGFGHVNGTIGMKMAIEKAKKYGMGMVVVRNSTHFGIAGYYSLLAAQEGCIGICGTNARSSVAATFGDEPILGTNPLAIGIPSDEAFPYCFDGATSISPTGRFEKYVRMGKTVDKSWASMKGGKPIEDPKELLENYPKGKAYLHPLGGSDEVSGSHKGYCLSEFVEIMSSCLSIANFLNHIEEEKEKSGKFSLGHFFIAINVECFRDLNEFKKNVGDINRTLRNTDKLPGHDRIYTAGEKEYETEQKRRKFGDDLPLVTINEMKELSSFYNVPLPF | not failed
8 | MEILVVAVGILVDRLTKIWALDKLKKVQDIPIIKNFFDLTYVENRGAAWGIFSGKTLVLSAVTLLVLSAIIVYMIKYRPKSKLARISLSLVISGALGNLYDRVFYKYVVDLFSLHYKDIYYYPVFNVADICVVVGTIMIAIFIVLKDDKKDGKV | failed
9 | MNLYFRLFWLLFWRTRHCRKIDFLGTSRITYRALPSDCDINFHLTNSRYPAFMDLARTYMLAEMGLLKRFLKLKWMPIVNAAEFTYIRDIKPLKKFEIETKVVGWDEKYFYIEQRFISERGLHCIVHVRGVFVCKGKQIPLEVLVKEAGYTAPAPELPPEVVKWKAFLQLKKERNL | failed
10 | MDVFSEYLAGIADPFHRERTEEVLTWIKNKYPNLHTEIKWNQPMFTDHGTFIIGFSVSKKHLAVAPEKVTIAHVEDDIVKAGYDYTEQLIRIPWNGPVDYTLLEKMIEFNILDKADCSTFWRK | not failed
11 | NDALRVMAGDLQRSEEKFRSMTDAAHDAVFMLNNEGKIVYRNTAAETLFGFSREEYGDQLFWELISPEFADFNIHDVCEMMPDEALPDFNSETRVRQIEGLRKDGSLVPIEISRGCVHIESVHHTVVIARDIT | failed
12 | MIIETERLLLRPFNEQDVDALYLMNSNPAMLKYIPTAPFTDREQARELFHNVILQDYQQRGFGRWAVEHKADNRVIGFCGPKFIPEFNEVEIGYRYFPEYWGKGIGTEAAEAALSVFPQFGIKQTIALILEGNLGSETVAKRVGMYWREHSEFMGHK | failed
13 | SSGVIAFDEGFRVTTVNQGAQTILQADLRSVIGRPLETVDGMLEFAQVVRQAFAAHAAVGSERLHWQQQFEITPGLDETGGQPVTLLARGTHLRVD | failed
14 | MFQENRTNELVILKEIAETLNTSNDTYHVLQAVLEKLLSVTGLTTGWIFLADEDGRYTKLIDYQLPEALTYENKRPMCEGECWCLRGFVDGKLERAVNIIECKRINNAIEYNWGDTEGILHHATVPLKAGGEKFGLLNVASPGKTHFSEEELVLLQSVAFQIGTALKRAKLYENEKRRAH | failed
15 | MKNVEVLTGDPKKAILKLSAPMVVSNLIFTLYNLVDGIWVAGLGPDALSAVGLFFPIFFVFIAISFGLSVGANSAVSRRIGAKRYDAACVAATLAVAMGILVSIPMTLSVVFLNGVMVFLGADGEILRLAVDYGSIMVLGSVFLVFSNVSAGILNGEGNARMAMYANAAGSLLNMVLDPIFIYLLGYGIAGAAIASVISMALSSIVFSFWFLSGRSYVRFRVAGWNLPTVFDLLRVGMPASLSMLTMSVAFMLINRVVIETGGSEGLAAYTSAWRLIQFGFVPLFGVSAALTAVSGAAYGARNPRKIGESLNYTVKLLLAVDAAILALMVAFAPQIALIFTYTEVSAVMYEEIVRTIRIAAFVLLFAPLGVSSSAVFQGMGKGERSFAITVLRAIVFQVSLCYVLAVPFGFDGVLLGFVLGEALGCFTGFSWVRLTVRRLERCLLST | failed
16 | MMVAVIPAYNEEKNIISVLKDLSDINIDVIVVDDGSTDKTKTIINEFLEKNEFKNKIFPIFKEKNEGKSKALEDGTNYAINLNYDAIAYLDGDYQHKPSDIIPMYEKMKSENADAVFGIRKYKHIPFHRQFSNFLASVIMSITVSVFSGNFHIFRDIQCGFRIIKSEFLKNSYFGDGYSVEHLIALQLAKKNAKITEEYVTIDYHNDAISYITTKKILDVVKEVAKYVLSKH | failed
17 | MALEPAEIFEKVSPSVWEVRVIGPDGKGLSMGSAVVIGDGVVITNCHVLRGGKQVWLKRGNANFGARLQYPDVERDLCQLRVADFHYPPVTLAPGSALVTGQKVYAIGNPLGLELTISEGLISSLRTDDDGRLKSVQTSAAISRGSSGGGLFDANGRLIGITDHQVVLTLGQNLNFAIPADWIADVPARAQKALAARAAAASAVVASTPAPQSAAPTPAPAPAPRHQGELGPNQQTGFSVYLQKTWPKAFVAADGDHYYYWTGKNAELYALSACQERWQNCSVYARNNTVVEPVEGTGERPGAAR | failed
18 | MKKDFASVTPAGKKTSVRWFIVFMLFLVTSINYADRATLSITGDSVQHDLGLDSVAMGYVFSAFGWAYVIGQLPGGWLLDRFGSKTIIALSIFFWSFFTLLQGAIGFFSAGTAIILLFALRFLVGLSEAPSFPGNGRVVASWFPSSERGTASAFFNSAQYFAIVIFPPLMGWLTHSFGWHSVFVVMGIAGILLAVIWLKTVYEPKKHPKVNEAELAYIEQGGGLISMDDSKSKQETESKWPYIKQLLTNRMLIGVYIAQYCITTLTYFFLTWFPVYLVQARGMSILEAGFVASLPALCGFAGGVLGGIVSDILLKKGRSLTFARKVPIIAGMLLSCSMIVCNYTDSAWLVVVIMSLAFFGKGFGALGWAVVSDTSPKECAGLSGGLFNTFGNIASITTPIIIGYIVNATGSFNGALVFVGANAIAAILSYLLLVGPIKRVVLKKQEQDPDQSLPV | failed
19 | SEDINRNPLLPTKEDEKMDGVIYGAYLPNLEKSVIPIGTASESTEPVNRYQIGVNLAGDAWAGYMSPRDNKFNGSKNFTNYFMYENWVNYVYSFMVTDVYSPWMQIKRISQDEGTRNDEIYALAQIIKIAALHRTTDMFGPIPYSQVGKGSFKVAYDSQESVYRSFLKELEEAVQTLDDYSNKSKEVLPAFDIVYNGDVNKWMRFANSLMLRLAIRVRFADAGLAKEYAEKAVKHPAGLINSKELAAQMGKGAGLQMKNPLKVINEEYNDTRMGATIYSYLAGYNDARAAVYFVKNNGFKAVRCGIAKSGDAYNGFTRPNVHEDDPLYWMKASEVCFLKAEGALAGFDMGGSAGDFYNAGIRMSFSENGLDNSSAETYLKDSTRKPANYTDTSNGELSANAPSSITIRWENGATEEEKLERIITQKYLAIFPNGQEAWTEWRRTGYPRQIVVAENKTNSAVLIGNGYDLGGVRRLPYPRTEYEQNGENLHNAISQYLGGVDNAATKVWWDKKSK | not failed
20 | MKVSVEIITGTFIDTDVSEDATVKQMKEKIAVEVKLPVTRLILVIGDEETRRLVMEDEDDMMLRDLGVGEDSHIYLFFKHPDLVSKEERSKGEDDDDPMEEVSSEAESGRGNEEEVEKAKIDGEEEDQAMKDEEEDRDVKVEEDEEEKEKEKDGEAKYVKEEAREVEEADNKQEN | failed
